Measurements reported in the supplement of paper PMC11246515.
± gives the standard deviation of the averaged measurements.

Test: total protein half-life in vivo (active degradation + dilution); higher = more stable protein
[1] = E. coli NCM3722 delta-clpP delta-lon delta-hslV, growth: N-lim chemostat, doubling time 6 h
[2] = E. coli NCM3722 delta-clpP, growth: N-lim chemostat, doubling time 6 h
[3] = E. coli NCM3722 delta-lon, growth: N-lim chemostat, doubling time 6 h
[4] = E. coli NCM3722 delta-smpB, growth: N-lim chemostat, doubling time 6 h
[5] = wild type E. coli NCM3722, growth: C-lim chemostat, doubling time 3 h
[6] = wild type E. coli NCM3722, growth: N-lim chemostat, doubling time 6 h
[7] = wild type E. coli NCM3722, growth: N-lim chemostat, doubling time 12 h
[8] = wild type E. coli NCM3722, growth: P-lim chemostat, doubling time 6 h
[9] = wild type E. coli NCM3722, growth: P-lim chemostat, doubling time 12 h
[10] = E. coli NCM3722 delta-hslV, growth: N-lim chemostat, doubling time 6 h
[11] = wild type E. coli NCM3722, growth: C-lim chemostat, doubling time 6 h
[12] = wild type E. coli NCM3722, growth: C-lim chemostat, doubling time 12 h

## MSFLLPIQLFKILADETRLGIVLLLSELGELCVCDLCTALDQSQPKISRHLALLRESGLLLDRKQGKWVHYRLSPHIPAWAAKIIDEAWRCEQEKVQAIVRNLARQNCSGDSKNICS
[1]
  total protein half-life in vivo: 6.03 h
[2]
  total protein half-life in vivo: 5.66 h
[3]
  total protein half-life in vivo: 5.43 h
[4]
  total protein half-life in vivo: 5.01 ± 0.46 h
[5]
  total protein half-life in vivo: 2.68 h
[6]
  total protein half-life in vivo: 4.89 h
[7]
  total protein half-life in vivo: 9.59 h
[8]
  total protein half-life in vivo: 5.5 h
[9]
  total protein half-life in vivo: 9.37 h

## MNGLLRIRQRYQGLAQSDKKLADYLLLQPDTARHLSSQQLANEAGVSQSSVVKFAQKLGYKGFPALKLALSEALASQPESPSVPIHNQIRGDDPLRLVGEKLIKENTAAMYATLNVNSEEKLHECVTMLRSARRIILTGIGASGLVAQNFAWKLMKIGFNAAAVRDMHALLATVQASSPDDLLLAISYTGVRRELNLAADEMLRVGGKVLAITGFTPNALQQRASHCLYTIAEEQATNSASISACHAQGMLTDLLFIALIQQDLELAPERIRHSEALVKKLV
[1]
  total protein half-life in vivo: 5.79 ± 0.53 h
[2]
  total protein half-life in vivo: 4.3186 ± 0.00083 h
[10]
  total protein half-life in vivo: 2.83 ± 0.031 h
[3]
  total protein half-life in vivo: 3.72 ± 0.33 h
[4]
  total protein half-life in vivo: 3.5 ± 0.69 h
[5]
  total protein half-life in vivo: 2.44 ± 0.087 h
[11]
  total protein half-life in vivo: 4.31 ± 0.2 h
[12]
  total protein half-life in vivo: 5.65 ± 1.1 h
[6]
  total protein half-life in vivo: 2.8 ± 0.11 h
[7]
  total protein half-life in vivo: 4.19 ± 0.29 h
[8]
  total protein half-life in vivo: 3.73 ± 0.18 h
[9]
  total protein half-life in vivo: 7.58 ± 1.8 h

## MMRKMLLAAALSVTAMTAHADYQCSVTPRDDVIVSPQTVQVKGENGNLVITPDGNVMYNGKQYSLNAAQREQAKDYQAELRSTLPWIDEGAKSRVEKARIALDKIIVQEMGESSKMRSRLTKLDAQLKEQMNRIIETRSDGLTFHYKAIDQVRAEGQQLVNQAMGGILQDSINEMGAKAVLKSGGNPLQNVLGSLGGLQSSIQTEWKKQEKDFQQFGKDVCSRVVTLEDSRKALVGNLK [P0ADS9]
[1]
  total protein half-life in vivo: 3.83 ± 0.21 h
[2]
  total protein half-life in vivo: 5 ± 1 h
[10]
  total protein half-life in vivo: 5.36 ± 0.32 h
[3]
  total protein half-life in vivo: 6.04 ± 0.83 h
[4]
  total protein half-life in vivo: 5.818 ± 0.046 h
[5]
  total protein half-life in vivo: 2.92 ± 0.17 h
[11]
  total protein half-life in vivo: 5.11 ± 0.8 h
[12]
  total protein half-life in vivo: 8.05 ± 1.5 h
[6]
  total protein half-life in vivo: 5.76 ± 0.15 h
[7]
  total protein half-life in vivo: 10.3 ± 0.12 h
[8]
  total protein half-life in vivo: 5.0188 ± 0.0027 h
[9]
  total protein half-life in vivo: 10 ± 0.48 h

## MSQKTLFTKSALAVAVALISTQAWSAGFQLNEFSSSGLGRAYSGEGAIADDAGNVSRNPALITMFDRPTFSAGAVYIDPDVNISGTSPSGRSLKADNIAPTAWVPNMHFVAPINDQFGWGASITSNYGLATEFNDTYAGGSVGGTTDLETMNLNLSGAYRLNNAWSFGLGFNAVYARAKIERFAGDLGQLVAGQIMQSPAGQTQQGQALAATANGIDSNTKIAHLNGNQWGFGWNAGILYELDKNNRYALTYRSEVKIDFKGNYSSDLNRAFNNYGLPIPTATGGATQSGYLTLNLPEMWEVSGYNRVDPQWAIHYSLAYTSWSQFQQLKATSTSGDTLFQKHEGFKDAYRIALGTTYYYDDNWTFRTGIAFDDSPVPAQNRSISIPDQDRFWLSAGTTYAFNKDASVDVGVSYMHGQSVKINEGPYQFESEGKAWLFGTNFNYAF
[1]
  total protein half-life in vivo: 6.74 ± 1.8 h
[4]
  total protein half-life in vivo: 5.52 ± 0.67 h
[5]
  total protein half-life in vivo: 3.2 ± 0.064 h
[11]
  total protein half-life in vivo: 6.165 ± 0.014 h
[12]
  total protein half-life in vivo: 10.9 ± 0.23 h
[6]
  total protein half-life in vivo: 6.3 ± 0.37 h
[7]
  total protein half-life in vivo: 11.1 ± 0.23 h
[8]
  total protein half-life in vivo: 6.09 ± 0.34 h
[9]
  total protein half-life in vivo: 12.2 ± 1.2 h

## MKLQQLRYIVEVVNHNLNVSSTAEGLYTSQPGISKQVRMLEDELGIQIFSRSGKHLTQVTPAGQEIIRIAREVLSKVDAIKSVAGEHTWPDKGSLYIATTHTQARYALPNVIKGFIERYPRVSLHMHQGSPTQIADAVSKGNADFAIATEALHLYEDLVMLPCYHWNRAIVVTPDHPLAGKKAITIEELAQYPLVTYTFGFTGRSELDTAFNRAGLTPRIVFTATDADVIKTYVRLGLGVGVIASMAVDPVADPDLVRVDAHDIFSHSTTKIGFRRSTFLRSYMYDFIQRFAPHLTRDVVDAAVALRSNEEIEVMFKDIKLPEK [P0A9F3]
[1]
  total protein half-life in vivo: 7.08 ± 0.39 h
[2]
  total protein half-life in vivo: 4.65 ± 0.091 h
[10]
  total protein half-life in vivo: 5.88 ± 0.65 h
[3]
  total protein half-life in vivo: 5.93 ± 0.08 h
[4]
  total protein half-life in vivo: 4.96 ± 0.18 h
[5]
  total protein half-life in vivo: 2.98 ± 0.23 h
[11]
  total protein half-life in vivo: 5.63 ± 0.12 h
[12]
  total protein half-life in vivo: 10 ± 1.2 h
[6]
  total protein half-life in vivo: 5.41 ± 0.36 h
[7]
  total protein half-life in vivo: 11 ± 0.51 h
[8]
  total protein half-life in vivo: 4.01 ± 0.32 h
[9]
  total protein half-life in vivo: 7.28 ± 0.33 h

## MSQVTENKVISAPVPMTPLQEFWHYFKRNKGAVVGLVYVVIVLFIAIFANWIAPYNPAEQFRDALLAPPAWQEGGSMAHLLGTDDVGRDVLSRLMYGARLSLLVGCLVVVLSLIMGVILGLIAGYFGGLVDNIIMRVVDIMLALPSLLLALVLVAIFGPSIGNAALALTFVALPHYVRLTRAAVLVEVNRDYVTASRVAGAGAMRQMFINIFPNCLAPLIVQASLGFSNAILDMAALGFLGMGAQPPTPEWGTMLSDVLQFAQSAWWVVTFPGLAILLTVLAFNLMGDGLRDALDPKLKQ [P0AEG1]
[1]
  total protein half-life in vivo: 6.11 h
[2]
  total protein half-life in vivo: 5.53 ± 0.37 h
[10]
  total protein half-life in vivo: 6.45 h
[3]
  total protein half-life in vivo: 6.14 ± 1 h
[4]
  total protein half-life in vivo: 5.93 ± 0.46 h
[5]
  total protein half-life in vivo: 3.47 h
[11]
  total protein half-life in vivo: > 8 h
[12]
  total protein half-life in vivo: 12.6 ± 2.1 h
[6]
  total protein half-life in vivo: 6.39 ± 0.51 h
[7]
  total protein half-life in vivo: 10.9 ± 2 h
[8]
  total protein half-life in vivo: 6.16 ± 0.14 h
[9]
  total protein half-life in vivo: 10.8 ± 2.3 h

## MKRPNFLFVMTDTQATNMVGCYSGKPLNTQNIDSLAAEGIRFNSAYTCSPVCTPARAGLFTGIYANQSGPWTNNVAPGKNISTMGRYFKDAGYHTCYIGKWHLDGHDYFGTGECPPEWDADYWFDGANYLSELTEKEISLWRNGLNSVEDLQANHIDETFTWAHRISNRAVDFLQQPARADEPFLMVVSYDEPHHPFTCPVEYLEKYADFYYELGEKAQDDLANKPEHHRLWAQAMPSPVGDDGLYHHPLYFACNDFVDDQIGRVINALTPEQRENTWVIYTSDHGEMMGAHKLISKGAAMYDDITRIPLIIRSPQGERRQVDTPVSHIDLLPTMMALADIEKPEILPGENILAVKEPRGVMVEFNRYEIEHDSFGGFIPVRCWVTDDFKLVLNLFTSDELYDRRNDPNEMHNLIDDIRFADVRSKMHDALLDYMDKIRDPFRSYQWSLRPWRKDARPRWMGAFRPRPQDGYSPVVRDYDTGLPTQGVKVEEKKQKF
[1]
  total protein half-life in vivo: 5.62 h
[3]
  total protein half-life in vivo: 3.1 h
[4]
  total protein half-life in vivo: 2 h
[5]
  total protein half-life in vivo: 2.28 h
[11]
  total protein half-life in vivo: 4.35 ± 0.17 h
[12]
  total protein half-life in vivo: 7.04 ± 0.66 h
[8]
  total protein half-life in vivo: 4.04 h
[9]
  total protein half-life in vivo: 8.72 ± 5.3 h
